The assay addresses T1, GST-SIK1ΔN (Arabidopsis thaliana, UniProt O24527 249-836).
T1 sequence (looked up): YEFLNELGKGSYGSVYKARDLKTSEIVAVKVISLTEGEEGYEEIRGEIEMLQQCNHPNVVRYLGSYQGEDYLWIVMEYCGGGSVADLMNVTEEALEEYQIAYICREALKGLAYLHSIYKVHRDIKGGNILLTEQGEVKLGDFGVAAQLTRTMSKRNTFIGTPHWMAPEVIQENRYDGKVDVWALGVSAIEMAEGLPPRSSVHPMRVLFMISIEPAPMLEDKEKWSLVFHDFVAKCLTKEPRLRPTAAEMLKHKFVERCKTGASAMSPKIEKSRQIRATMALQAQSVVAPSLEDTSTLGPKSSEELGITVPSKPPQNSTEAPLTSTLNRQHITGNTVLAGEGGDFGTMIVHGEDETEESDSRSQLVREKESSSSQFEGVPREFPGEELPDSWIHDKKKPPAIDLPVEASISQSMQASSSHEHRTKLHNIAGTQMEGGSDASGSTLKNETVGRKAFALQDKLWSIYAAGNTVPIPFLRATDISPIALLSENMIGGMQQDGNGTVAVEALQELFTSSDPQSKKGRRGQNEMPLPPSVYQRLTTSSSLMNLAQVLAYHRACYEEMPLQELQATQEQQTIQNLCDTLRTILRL
In words: pull-down.

These results are taken from article PMC6279242 (Cell host & microbe, 2018).

B1: MBP-BIK1 (enzyme, Arabidopsis thaliana, UniProt O48814 1-395, looked up)
chain: MGSCFSSRVKADIFHNGKSSDLYGLSLSSRKSSSTVAAAQKTEGEILSSTPVKSFTFNELKLATRNFRPDSVIGEGGFGCVFKGWLDESTLTPTKPGTGLVIAVKKLNQEGFQGHREWLTEINYLGQLSHPNLVKLIGYCLEDEHRLLVYEFMQKGSLENHLFRRGAYFKPLPWFLRVNVALDAAKGLAFLHSDPVKVIYRDIKASNILLDADYNAKLSDFGLARDGPMGDLSYVSTRVMGTYGYAAPEYMSSGHLNARSDVYSFGVLLLEILSGKRALDHNRPAKEENLVDWARPYLTSKRKVLLIVDNRLDTQYLPEEAVRMASVAVQCLSFEPKSRPTMDQVVRALQQLQDNLGKPSQTNPVKDTKKLGFKTGTTKSSEKRFTQKPFGRHLV
Regarding B1, the binding result is “binds”.
